From article PMC6602146 (Molecules and Cells, 2019)

Target: the molecule itself
Assay: crystal structure

B1: α-carbonic anhydrase from Persephonella marina EX-H1 (enzyme, UniProt C0QRB5 20-243, looked up)
chain: GGGWSYHGEHGPEHWGDLKDEYIMCKIGKNQSPVDINRIVDAKLKPIKIEYRAGATKVLNNGHTIKVSYEPGSYIVVDGIKFELKQFHFHAPSEHKLKGQHYPFEAHFVHADKHGNLAVIGVFFKEGRENPILEKIWKVMPENAGEEVKLAHKINAEDLLPKDRDYYRYSGSLTTPPCSEGVRWIVMEEEMEMSKEQIEKFRKIMGGDTNRPVQPLNARMIMEK
stoichiometry N: 2
